Measurements as given in patent US20190263899A1 (Novartis, published 2019).

B1: Synaptopodin 2-like protein (protein, UniProt Q8BWB1 1-975, looked up)
Synaptopodin 2-like protein: MGAEEEVQVTLAGGAPWGFRLQGGTEQRKPLQIRRRSQAGRAGLRERDQLLAINGVSCTNFSHASAMTLIDASGRQLVLTVRRVTDEGSVRSPSPGELQVLSPLSPLSPEPPGAPVSQALQPTSLRSPPDSEAYYGETDSDVDGPATQEKPRRTRRRGPARPSLPGAPPDEVYLSDSPAEPAPVKTGSPSQGDSRVSSPSWEEGAALQPPPAEALLLPHGPLRPGPHLIPMVGPVPHPVAEDLTTTYTQKAKQAKLQRAESLQEKSVKEARTKCRTIASLLTAAPNPHSKGVLMFKKRRQRAKKYTLVSFGAAAGTGTEEEDGIPPTSESELDEETFSDARSLTNQSDWDSPYLDMELARAGLGTAESQNSGLGGQLSEVSGRGVQLFEQQRQRVASSSQELAQVGPAAMLNGQSLQSPPRAQSAPPEAAVLPLSPLSVPAVSPTPFFPDGGAPIPAPSIFNRSARPFTPGLQGQRSGTTSVIFRPLAPKKVNEGLGSTSPAPSPFAAPPQGPTPLPSFTTVVPSHTPVSGASSSTQRSSGPVTATSSLYIPAPSRPVTPGGAPEPPTPPSAAAMTSTASIFLSTPLRNSARPEAPGPAVPEPASVREQRISVPAARTGILQEARRRGTRKQMFRPGKEETKNSPNPELLSLVQNLDEKPRAGGAESGPEEDALSLGAEACNFMQPLGGRSYKTLPQVSPKTPPPMAPKTPPPTTPKTPPPVAPKPGSRGLLDGLVNGSTPMVGIPEPPRLQGRGGELFAKRQSRADRYVVEATSGSSLNPGLRPRSPSPTPSLPPSWKYSPNIRAPPPIAYNPLLSPFFPQAARTLPNKAQSQGPRVTPKQGIKALDFMRHQPYQLKTAMFCFDEGSSTPGPTSGPPKTARVQEIRRFSTPAPQPTAEPLAPTVLVPRAATTLDEPIWRAELASTPVPNPDHQESLRSFAAAPSSCGFQVARPRFSATRTGLQAHVWRPGAGHQ
B2: C-terminally 3×FLAG-1×HA-tagged mouse MINION (other)
chain: MPVPLLPMVLRSLLSRLLLPVARLARQHLLPLLRRLARRLSSQDMREALLSCLLFVLSQQQPPDSGEASRVDHSQRKERLGPQK
notes: Construct of the mouse MINION CDS (84 aa isoform) expressed from the pCIGAR retroviral vector; The AP-MS text only says 'FLAG-tagged Minion'; also called FLAG-tagged Minion; 3F1H-tagged mouse MINION; not shown: C-terminal 3×FLAG-1×HA tag

Target: T1, C-terminally 3×FLAG-1×HA-tagged mouse MINION (Mus musculus) (UniProt Q2Q5T5)
T1 sequence: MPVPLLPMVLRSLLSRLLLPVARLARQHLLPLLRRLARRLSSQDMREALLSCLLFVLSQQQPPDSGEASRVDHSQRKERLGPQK
Assay: AP-MS, FLAG-tagged Minion bait, differentiating C2C12 myoblasts

First: ATP synthase subunit beta, mitochondrial (from UniProt P56480 47-529) (enzyme)
Second: ATPase family AAA domain-containing protein 1 (from UniProt Q9D5T0 1-361) (enzyme)
The Sequence Coverage (%) of the first is higher: 77% for the first, 30% for the second.

Going from “Acetolactate synthase-like protein (from UniProt Q8BU33 1-632) (enzyme)” to “Adenylate kinase isoenzyme 4, mitochondrial (from UniProt Q9WUR9 1-223)”, the Sequence Coverage (%) rises from 32% to 52%.

First: Aldehyde dehydrogenase family 3 member B1 (from UniProt Q80VQ0 1-465) (enzyme)
Second: Apolipoprotein O-like (from UniProt Q78IK4 28-265)
The Sequence Coverage (%) of the first is lower: 46% for the first, 49% for the second.

First: B-cell receptor-associated protein 31 (from UniProt Q61335 2-245)
Second: Calcium uniporter protein, mitochondrial (from UniProt Q3UMR5 50-350)
The Sequence Coverage (%) of the first is lower: 27% for the first, 38% for the second.

Compared with “Calsequestrin-2 (from UniProt O09161 20-415)”, “Cluster of Guanine nucleotide-binding protein G(s) subunit alpha isoforms short” is higher in Sequence Coverage (%): 24% for the first, 34% for the second.

First: Cluster of Myc box-dependent-interacting protein 1 (from UniProt O08539 2-588)
Second: Coproporphyrinogen-III oxidase, mitochondrial (from UniProt P36552 99-443) (enzyme)
The Sequence Coverage (%) of the first is lower: 42% for the first, 52% for the second.

Going from “Cytochrome b-c1 complex subunit 1, mitochondrial (from UniProt Q9CZ13 35-480)” to “Cytoplasmic dynein 1 heavy chain 1 (from UniProt Q9JHU4 2-4644)”, the Sequence Coverage (%) rises from 41% to 46%.

First: Cytoskeleton-associated protein 5 (from UniProt A2AGT5 1-2032)
Second: DnaJ homolog subfamily C member 16 (from UniProt Q80TN4 26-772)
The Sequence Coverage (%) of the first is lower: 8% for the first, 19% for the second.

Compared with Dysferlin (from UniProt Q9ESD7 1-2090), “Eukaryotic initiation factor 4A-II (from UniProt P10630 1-407)” is higher in Sequence Coverage (%): 13% for the first, 53% for the second.

Compared with “Inositol 1,4,5-trisphosphate receptor type 3 (from UniProt P70227 1-2670)”, “Isovaleryl-CoA dehydrogenase, mitochondrial (from UniProt Q9JHI5 31-424) (enzyme)” is higher in Sequence Coverage (%): 6% for the first, 49% for the second.

Compared with “Junctional sarcoplasmic reticulum protein 1 (from UniProt Q3MI48 1-332)”, “NADH dehydrogenase [ubiquinone] 1 alpha subcomplex subunit 10, mitochondrial (from UniProt Q99LC3 36-355) (enzyme)” is lower in Sequence Coverage (%): 53% for the first, 24% for the second.

First: NADH dehydrogenase [ubiquinone] flavoprotein 1, mitochondrial (from UniProt Q91YT0 21-464) (enzyme)
Second: NADH-ubiquinone oxidoreductase 75 kDa subunit, mitochondrial (from UniProt Q91VD9 24-727) (enzyme)
The Sequence Coverage (%) of the first is higher: 24% for the first, 20% for the second.

Going from “Nascent polypeptide-associated complex subunit alpha, muscle-specific form (from UniProt P70670 1-2187)” to “Signal recognition particle 68 kDa protein (from UniProt Q8BMA6 1-625)”, the Sequence Coverage (%) rises from 18% to 25%.

First: Sorbin and SH3 domain-containing protein 2 (from UniProt Q3UTJ2 1-1180)
Second: Syntaxin-8 (from UniProt O88983 1-236)
The Sequence Coverage (%) of the first is lower: 7% for the first, 19% for the second.

Compared with T-complex protein 1 subunit alpha, “T-complex protein 1 subunit beta (from UniProt P80314 2-535)” is higher in Sequence Coverage (%): 52% for the first, 55% for the second.

Going from “T-complex protein 1 subunit theta (from UniProt P42932 2-548)” to “Trifunctional enzyme subunit alpha, mitochondrial (from UniProt Q8BMS1 37-763)”, the Sequence Coverage (%) rises from 48% to 66%.

First: Trifunctional enzyme subunit beta, mitochondrial (from UniProt Q99JY0 35-475)
Second: Tripartite motif-containing protein 72 (from UniProt Q1XH17 1-477)
The Sequence Coverage (%) of the first is higher: 68% for the first, 55% for the second.

Going from “Vacuolar protein sorting-associated protein 45 (from UniProt P97390 1-570)” to “Very long-chain specific acyl-CoA dehydrogenase, mitochondrial (from UniProt P50544 42-656) (enzyme)”, the Sequence Coverage (%) rises from 15% to 57%.

First: Voltage-dependent anion-selective channel protein 1 (from UniProt Q60932 1-296)
Second: B1
The Sequence Coverage (%) of the first is higher: 15% for the first, 8% for the second.

Going from “ATP synthase subunit beta, mitochondrial (from UniProt P56480 47-529) (enzyme)” to “ATPase family AAA domain-containing protein 1 (from UniProt Q9D5T0 1-361) (enzyme)”, the Unique Peptide falls from 26 to 7.

Compared with “Acetolactate synthase-like protein (from UniProt Q8BU33 1-632) (enzyme)”, “Adenylate kinase isoenzyme 4, mitochondrial (from UniProt Q9WUR9 1-223)” is lower in Unique Peptide: 10 for the first, 6 for the second.

First: Aldehyde dehydrogenase family 3 member B1 (from UniProt Q80VQ0 1-465) (enzyme)
Second: Apolipoprotein O-like (from UniProt Q78IK4 28-265)
The Unique Peptide of the first is higher: 15 for the first, 9 for the second.

First: B-cell receptor-associated protein 31 (from UniProt Q61335 2-245)
Second: Calcium uniporter protein, mitochondrial (from UniProt Q3UMR5 50-350)
The Unique Peptide of the first is lower: 7 for the first, 12 for the second.

“Calsequestrin-2 (from UniProt O09161 20-415)” and “Cluster of Guanine nucleotide-binding protein G(s) subunit alpha isoforms short” are the same in Unique Peptide: 9 for the first, 9 for the second.

First: Cluster of Myc box-dependent-interacting protein 1 (from UniProt O08539 2-588)
Second: Coproporphyrinogen-III oxidase, mitochondrial (from UniProt P36552 99-443) (enzyme)
The Unique Peptide of the first is lower: 16 for the first, 19 for the second.

First: Cytochrome b-c1 complex subunit 1, mitochondrial (from UniProt Q9CZ13 35-480)
Second: Cytoplasmic dynein 1 heavy chain 1 (from UniProt Q9JHU4 2-4644)
The Unique Peptide of the first is lower: 13 for the first, 157 for the second.

First: Cytoskeleton-associated protein 5 (from UniProt A2AGT5 1-2032)
Second: DnaJ homolog subfamily C member 16 (from UniProt Q80TN4 26-772)
The Unique Peptide of the first is higher: 13 for the first, 9 for the second.

Going from Dysferlin (from UniProt Q9ESD7 1-2090) to “Eukaryotic initiation factor 4A-II (from UniProt P10630 1-407)”, the Unique Peptide falls from 17 to 9.

Compared with “Inositol 1,4,5-trisphosphate receptor type 3 (from UniProt P70227 1-2670)”, “Isovaleryl-CoA dehydrogenase, mitochondrial (from UniProt Q9JHI5 31-424) (enzyme)” is higher in Unique Peptide: 11 for the first, 16 for the second.

First: Junctional sarcoplasmic reticulum protein 1 (from UniProt Q3MI48 1-332)
Second: NADH dehydrogenase [ubiquinone] 1 alpha subcomplex subunit 10, mitochondrial (from UniProt Q99LC3 36-355) (enzyme)
The Unique Peptide of the first is higher: 8 for the first, 7 for the second.

Going from “NADH dehydrogenase [ubiquinone] flavoprotein 1, mitochondrial (from UniProt Q91YT0 21-464) (enzyme)” to “NADH-ubiquinone oxidoreductase 75 kDa subunit, mitochondrial (from UniProt Q91VD9 24-727) (enzyme)”, the Unique Peptide rises from 7 to 9.

First: Nascent polypeptide-associated complex subunit alpha, muscle-specific form (from UniProt P70670 1-2187)
Second: Signal recognition particle 68 kDa protein (from UniProt Q8BMA6 1-625)
The Unique Peptide of the first is higher: 23 for the first, 11 for the second.

First: Sorbin and SH3 domain-containing protein 2 (from UniProt Q3UTJ2 1-1180)
Second: Syntaxin-8 (from UniProt O88983 1-236)
The Unique Peptide of the first is higher: 6 for the first, 4 for the second.

T-complex protein 1 subunit alpha and “T-complex protein 1 subunit beta (from UniProt P80314 2-535)” are the same in Unique Peptide: 20 for the first, 20 for the second.

Compared with “T-complex protein 1 subunit theta (from UniProt P42932 2-548)”, “Trifunctional enzyme subunit alpha, mitochondrial (from UniProt Q8BMS1 37-763)” is higher in Unique Peptide: 22 for the first, 33 for the second.

First: Trifunctional enzyme subunit beta, mitochondrial (from UniProt Q99JY0 35-475)
Second: Tripartite motif-containing protein 72 (from UniProt Q1XH17 1-477)
The Unique Peptide of the first is higher: 22 for the first, 16 for the second.

First: Vacuolar protein sorting-associated protein 45 (from UniProt P97390 1-570)
Second: Very long-chain specific acyl-CoA dehydrogenase, mitochondrial (from UniProt P50544 42-656) (enzyme)
The Unique Peptide of the first is lower: 7 for the first, 26 for the second.

First: Voltage-dependent anion-selective channel protein 1 (from UniProt Q60932 1-296)
Second: B1
The Unique Peptide of the first is higher: 10 for the first, 5 for the second.

Target: T2, Gapdh (mouse, UniProt P16858 1-333)
T2 construct: also called glyceraldehyde-3-phosphate dehydrogenase
Assay: Western blot of the FLAG-tagged Minion affinity purification

T2 sequence (P16858 whole entry): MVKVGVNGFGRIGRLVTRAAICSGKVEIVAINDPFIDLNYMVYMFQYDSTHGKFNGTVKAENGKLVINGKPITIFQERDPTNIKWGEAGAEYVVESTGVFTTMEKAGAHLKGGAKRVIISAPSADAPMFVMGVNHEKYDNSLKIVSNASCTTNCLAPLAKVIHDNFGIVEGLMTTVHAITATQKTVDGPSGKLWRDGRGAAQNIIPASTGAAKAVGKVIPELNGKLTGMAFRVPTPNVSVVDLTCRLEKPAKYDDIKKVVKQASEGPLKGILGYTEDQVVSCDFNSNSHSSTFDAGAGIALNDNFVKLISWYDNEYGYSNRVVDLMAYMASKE

B2: no binding.
